The record followed here is patent US20220119534A1 (DRAGONFLY THERAPEUTICS, published 2022).

Where a chain is given by its changes, count along the chain named. Names may count otherwise. “And” between values parts separate entries of the source, which are not always exact repeats. Equal entries are not always repeated.

Assay [1] deals with T1, mFc-hNKG2D (human, UniProt P26718 73-216).
T1 construct: extracellular domain; Made in house (Dragonfly Tx); the order of tag and ECD follows the name mFc-hNKG2D; also called mFc-tagged human NKG2D; not shown: mouse Fc tag
T1 sequence (looked up): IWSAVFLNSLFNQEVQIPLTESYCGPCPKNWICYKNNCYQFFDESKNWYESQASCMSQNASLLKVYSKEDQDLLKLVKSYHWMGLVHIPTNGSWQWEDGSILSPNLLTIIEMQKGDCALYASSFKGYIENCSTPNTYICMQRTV
Nature of the assay: SPR Biacore 8K 37 C; mFc-hNKG2D captured on anti-mFc chip, TriNKET as analyte; 1:1 kinetic fit; control sample, n=3.

Assay [2] deals with T2, Human CLEC12A-His (human, UniProt Q5QGZ9 65-265).
T2 construct: Recombinant soluble protein made in house (Dragonfly Tx); The hCLEC12A spot of the HuProt array is written under this molecule as well; also called hCLEC12A-His; hCLEC12A; not shown: His tag
T2 sequence: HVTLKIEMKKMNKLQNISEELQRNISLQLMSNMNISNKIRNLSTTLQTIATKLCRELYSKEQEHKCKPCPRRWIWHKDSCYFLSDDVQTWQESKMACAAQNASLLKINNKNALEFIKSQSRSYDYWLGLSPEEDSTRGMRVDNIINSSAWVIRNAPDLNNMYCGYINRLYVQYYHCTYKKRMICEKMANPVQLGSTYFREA
Nature of the assay: SPR Biacore 8K 37 C; TriNKET captured on anti-hFc chip, hCLEC12A-His as analyte; 1:1 fit; control sample, n=2. On the technique in general: In SPR one partner is held on a chip, and binding of the other changes the refractive index at the surface.

Assay [3] addresses T2, Human CLEC12A-His. Nature of the assay: SPR Biacore 8K 37 C; TriNKET captured on anti-hFc chip, hCLEC12A-His as analyte; 1:1 fit; after 4 wks 2-8 C in CST pH 7.0, n=2.
In assay [4] the target is T3, human CLEC12A on cells (HL60, PL21, Ba/F3-hCLEC12A) (human, UniProt Q5QGZ9 1-265).
T3 construct: Endogenous on the AML lines HL60 and PL21; brought into mouse Ba/F3 cells by retroviral transduction; The cell line stands under assay; also called CLL-1
T3 sequence: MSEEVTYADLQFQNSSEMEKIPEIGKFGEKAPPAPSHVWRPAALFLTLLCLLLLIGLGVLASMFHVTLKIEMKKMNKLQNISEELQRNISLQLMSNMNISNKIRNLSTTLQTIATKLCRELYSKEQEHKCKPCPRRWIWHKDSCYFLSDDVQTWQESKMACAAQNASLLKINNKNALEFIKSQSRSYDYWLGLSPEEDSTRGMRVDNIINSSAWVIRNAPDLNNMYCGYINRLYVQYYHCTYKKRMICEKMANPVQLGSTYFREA
Nature of the assay: flow cytometry, HL-60 cells. On the technique in general: Flow cytometry measures light scatter and fluorescence of single cells or particles in a stream.

In assay [5] the target is T4, mFc-hNKG2D (human, UniProt P26718 73-216).
T4 construct: extracellular domain; Recombinant mFc-tagged NKG2D dimer, made in house; also called human NKG2D; not shown: mouse Fc tag
T4 sequence (looked up): T1 sequence (looked up)
Nature of the assay: SPR, 37 C, mFc-hNKG2D captured, 1:1 kinetic fit.

For assay [6], the target named is T5, Human CLEC12A-His (human, UniProt Q5QGZ9 65-265).
T5 construct: Recombinant soluble protein made in house; also called hCLEC12A-His; hCLEC12A; not shown: His tag
T5 sequence: T2 sequence
Nature of the assay: SPR, hCLEC12A (K244) WT.

A further assay concerns the target T6, Cynomolgus FcRn (cynomolgus monkey, UniProt Q8SPV9 24-297; Q8SPW0 21-119).
T6 construct: Bought recombinant receptor; also called cFcRn; Cyno FcRn
Put plainly: SPR, steady state fit; average for AB0192.

The next assay has as its target T7, Human FcRn (human, UniProt P55899 24-297; P61769 21-119).
T7 construct: Bought recombinant receptor; also called hFcRn
Put plainly: SPR, steady state fit; average for AB0192.

The target in assay [7] is T8, Human CLEC12A-His (recombinant, K244 WT) (human, UniProt Q5QGZ9 65-265).
T8 construct: Made in house (Dragonfly Tx); also called hCLEC12A; hCLEC12A-His; not shown: His tag
T8 sequence: T2 sequence
Nature of the assay: SPR, two-state fit (kd1); control sample.

The target of assay [8] is T9, Human CLEC12A expressed on cells (Ba/F3-hCLEC12A, PL21, HL60) (human, UniProt Q5QGZ9 1-265).
T9 sequence: T3 sequence
Put plainly: cell-based or functional assay.

For assay [9], the target named is T10, recombinant human CLEC12A-His (human, UniProt Q5QGZ9 65-265).
T10 construct: also called hCLEC12A-His; hCLEC12A
T10 sequence: T2 sequence
Put plainly: SPR 37C, average.

Assay [10] deals with T11, recombinant human CD32a R131 (human, UniProt P12318 36-218, limits assumed, biotinylated).
T11 construct: also called FcγRIIa R131
T11 sequence (looked up): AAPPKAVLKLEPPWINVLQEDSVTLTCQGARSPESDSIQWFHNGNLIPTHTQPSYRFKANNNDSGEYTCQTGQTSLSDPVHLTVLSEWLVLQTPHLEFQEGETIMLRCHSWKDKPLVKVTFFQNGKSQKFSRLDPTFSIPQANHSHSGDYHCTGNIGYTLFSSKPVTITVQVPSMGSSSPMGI
Nature of the assay: SPR, summary table.

The next assay concerns the target T12, recombinant human CD16b (human, UniProt O75015 17-200, limits assumed, biotinylated).
T12 construct: also called FcγRIIIb
Put plainly: SPR, summary table.

The target of assay [11] is T13, recombinant cynomolgus CD64 (cynomolgus monkey, UniProt A0A2K5U901 33-309, Biotinylated for capture on the CAP chip; the biotin site is not stated.).
T13 construct: also called cFcγRI; cyno CD64; not shown: The vendor's biotinylation and purification tag, used for capture via biotin
Nature of the assay: SPR, summary table.

The target in a further assay is T14, recombinant human CD64 (human, UniProt P12314 16-288, biotinylated).
T14 construct: also called hFcγRI; hCD64
Put plainly: SPR, summary table.

Assay [12] concerns the target T10, recombinant human CLEC12A-His. Put plainly: SPR 37C.

T7 sequence (P55899 24-297 limits assumed, chain 1 of 2): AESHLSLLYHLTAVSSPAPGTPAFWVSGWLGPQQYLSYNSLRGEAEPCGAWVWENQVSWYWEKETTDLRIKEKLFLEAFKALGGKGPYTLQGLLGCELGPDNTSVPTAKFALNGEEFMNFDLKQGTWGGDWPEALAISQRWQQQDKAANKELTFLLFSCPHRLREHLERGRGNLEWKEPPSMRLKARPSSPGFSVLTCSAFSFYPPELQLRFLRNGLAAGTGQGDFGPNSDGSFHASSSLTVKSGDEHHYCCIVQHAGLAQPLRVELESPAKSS
T7 sequence (P61769 21-119 limits assumed, chain 2 of 2): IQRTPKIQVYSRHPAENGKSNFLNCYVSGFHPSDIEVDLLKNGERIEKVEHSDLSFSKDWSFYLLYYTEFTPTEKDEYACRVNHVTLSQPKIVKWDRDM
T13 sequence (A0A2K5U901 entry or part of it limits assumed): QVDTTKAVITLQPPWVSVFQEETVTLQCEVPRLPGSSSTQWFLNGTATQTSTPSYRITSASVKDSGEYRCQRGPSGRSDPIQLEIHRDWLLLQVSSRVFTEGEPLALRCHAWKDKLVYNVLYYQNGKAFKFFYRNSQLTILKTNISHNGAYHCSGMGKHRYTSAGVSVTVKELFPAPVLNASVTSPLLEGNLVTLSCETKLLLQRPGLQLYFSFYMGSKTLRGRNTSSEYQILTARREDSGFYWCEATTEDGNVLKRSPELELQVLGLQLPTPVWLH
T6 sequence (Q8SPV9 24-297 limits assumed, chain 1 of 2): as the sequence (P55899 24-297 limits assumed, chain 1 of 2) above, with N39D, E44Q, G99S, S189G, S190N, L217M, S269T counted along it
T6 sequence (Q8SPW0 21-119 limits assumed, chain 2 of 2): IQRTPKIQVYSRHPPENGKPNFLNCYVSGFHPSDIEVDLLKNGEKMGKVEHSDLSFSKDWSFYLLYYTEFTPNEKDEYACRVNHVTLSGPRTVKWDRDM
T12 sequence (O75015 17-200 limits assumed): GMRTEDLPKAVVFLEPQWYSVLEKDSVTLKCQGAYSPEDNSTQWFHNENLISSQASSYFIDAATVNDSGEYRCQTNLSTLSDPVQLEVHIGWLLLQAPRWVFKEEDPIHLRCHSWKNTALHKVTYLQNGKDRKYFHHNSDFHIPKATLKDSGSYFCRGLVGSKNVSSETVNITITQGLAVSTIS
T14 sequence (P12314 16-288 limits assumed): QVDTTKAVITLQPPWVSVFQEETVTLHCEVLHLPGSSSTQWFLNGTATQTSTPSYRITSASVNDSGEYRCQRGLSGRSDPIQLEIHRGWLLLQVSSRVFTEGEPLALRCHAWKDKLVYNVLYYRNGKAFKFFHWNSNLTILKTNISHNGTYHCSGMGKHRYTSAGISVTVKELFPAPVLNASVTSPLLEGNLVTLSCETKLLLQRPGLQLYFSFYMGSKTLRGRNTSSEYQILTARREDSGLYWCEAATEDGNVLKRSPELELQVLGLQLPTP

B1: F3'-1602 TriNKET (bispecific antibody, human IgG1, kappa)
chain: QLQLQESGPGLVKPSETLSLTCTVSGFSLTNYGLHWIRQPPGKCLEWIGVIWSGGKTDYNPSLKSRVTISKDTSKNQFSLKLSSVQAADTAVYYCAKYDYDDSLDYWGQGTLVTVSSGGGGSGGGGSGGGGSGGGGSDIQMTQSPSSLSASVGDRVTITCHASQNINFWLSWYQQKPGKAPKLLIYEASNLHTGVPSRFSGSGSGTRFTLTISSLQPEDIATYYCQQSHSYPLTFGCGTKLEIKGSDKTHTCPPCPAPELLGGPSVFLFPPKPKDTLMISRTPEVTCVVVDVSHEDPEVKFNWYVDGVEVHNAKTKPREEQYNSTYRVVSVLTVLHQDWLNGKEYKCKVSNKALPAPIEKTISKAKGQPREPRVYTLPPCRDELTKNQVSLTCLVKGFYPSDIAVEWESNGQPENNYKTTPPVLVSDGSFTLYSKLTVDKSRWQQGNVFSCSVMHEALHNHYTQKSLSLSPG
heavy: EVQLVESGGGLVKPGGSLRLSCAASGFTFSSYSMNWVRQAPGKGLEWVSSISSSSSYIYYADSVKGRFTISRDNAKNSLYLQMNSLRAEDTAVYYCARGAPIGAAAGWFDPWGQGTLVTVSSASTKGPSVFPLAPSSKSTSGGTAALGCLVKDYFPEPVTVSWNSGALTSGVHTFPAVLQSSGLYSLSSVVTVPSSSLGTQTYICNVNHKPSNTKVDKKVEPKSCDKTHTCPPCPAPELLGGPSVFLFPPKPKDTLMISRTPEVTCVVVDVSHEDPEVKFNWYVDGVEVHNAKTKPREEQYNSTYRVVSVLTVLHQDWLNGKEYKCKVSNKALPAPIEKTISKAKGQPREPQVCTLPPSRDELTENQVSLTCLVKGFYPSDIAVEWESNGQPENNYKTTPPVLDSDGSFFLYSWLTVDKSRWQQGNVFSCSVMHEALHNHYTQKSLSLSPG
light: DIQMTQSPSSVSASVGDRVTITCRASQGISSWLAWYQQKPGKAPKLLIYAASSLQSGVPSRFSGSGSGTDFTLTISSLQPEDFATYYCQQGVSFPRTFGGGTKVEIKRTVAAPSVFIFPPSDEQLKSGTASVVCLLNNFYPREAKVQWKVDNALQSGNSQESVTEQDSKDSTYSLSSTLTLSKADYEKHKVYACEVTHQGLSSPVTKSFNRGEC
notes: Trispecific F3' format: CLEC12A scFv-Fc paired with NKG2D Fab-Fc; Stressed and control samples of the stability studies are the same molecule; also called AB0237
In the case of B1, in the assay with mFc-hNKG2D [1], binding was put at a Kd of 661 nM; the koff (as a rule, the first-order rate constant of dissociation) was 0.139 s⁻¹; the on-rate (kon) – broadly, the rate constant with which the complex forms – is 211000 M⁻¹ s⁻¹. In the assay with Human CLEC12A-His [2], the dissociation constant (Kd) (in general, the free concentration of one partner at which half of the binding sites on the other are occupied at equilibrium, for simple one-to-one binding) was found to be 0.98 nM; the koff worked out at 0.000735 s⁻¹; the kon came out at 750000 M⁻¹ s⁻¹. Besides, in the assay with Human CLEC12A-His [3], the Kd came out at 0.91 nM, the dissociation rate constant (koff) was 0.000708 s⁻¹ and the on-rate (kon) was 776000 M⁻¹ s⁻¹.

B2: AB0192 TriNKET (other)
chain: EVQLVESGGGVVQPGGSLRLSCAASGFTFNAFGMHWVRQAPGKCLEWVAFISSGSTSIYYANTVKGRFTISRDNSKNTLYLQMNSLRAEDTAVYYCARDGYPTGGAMDYWGQGTSVTVSSGGGGSGGGGSGGGGSGGGGSDIQMTQSPSSLSASVGDRVTITCKASQDIYNYLSWFQQKPGKAPKPLIYRANILVSGVPSRFSGSGSGQDYTFTISSLQPEDIATYYCLQFDAFPFTFGCGTKLEIKGSDKTHTCPPCPAPELLGGPSVFLFPPKPKDTLMISRTPEVTCVVVDVSHEDPEVKFNWYVDGVEVHNAKTKPREEQYNSTYRVVSVLTVLHQDWLNGKEYKCKVSNKALPAPIEKTISKAKGQPREPRVYTLPPCRDELTKNQVSLTCLVKGFYPSDIAVEWESNGQPENNYKTTPPVLVSDGSFTLYSKLTVDKSRWQQGNVFSCSVMHEALHNHYTQKSLSLSPG
heavy: B1 heavy
light: B1 light
notes: the condition stands under assay; also called AB0192 Lot AB0192-005
B2: the midpoint of the response in assay [4], the EC50, lay at 0.6 nM. For the same molecule, the koff with mFc-hNKG2D [5] was 0.143 s⁻¹ and 0.153 s⁻¹; in the assay with Human CLEC12A-His [6], 0.00115 s⁻¹. The association rate constant (kon) is 186000 M⁻¹ s⁻¹ and 196000 M⁻¹ s⁻¹ and 181000 M⁻¹ s⁻¹ with mFc-hNKG2D [5]; 698000 M⁻¹ s⁻¹ in the assay with Human CLEC12A-His [6]. For the same molecule, the values for the dissociation constant (Kd) in the assay with Human CLEC12A-His [6], with Cynomolgus FcRn and with Human FcRn were 1.65 nM, 1400 nM and 1500 nM, respectively.

B3: AB0089 TriNKET (bispecific antibody, human IgG1, kappa)
chain: B1 chain with S53V, K56A, K71V, Y98G, D101G, S103T, R207D, I220F
heavy: B1 heavy
light: B1 light
notes: F3' format heterodimer of three chains; human IgG1 Fc with EW-RVT and Y349C/S354C mutations; also called AB0089 Lot AB0089-002; CLEC12A TriNKET AB0089
Turning to B3, the off-rate (koff) in [7] is 0.0476 s⁻¹. Also, in assay [8], the “EC50, KHYG1-CD16aV cytotoxicity assay, HL-60 cells; control (AB0089-002)” value worked out at 0.04 nM and the “EC50, KHYG1-CD16aV cytotoxicity assay, HL-60 cells; low pH hold (AB0089-004)” value came to 0.03 nM.

B4: F3'-1602 TriNKET (other)
chain: B1 chain
heavy: B1 heavy
light: B1 light
notes: CLEC12A scFv-Fc, NKG2D A49MI Fab-Fc, human IgG1 Fc; also called AB0237
Regarding B4, the equilibrium dissociation constant (Kd) in assay [9] stood at 0.59 nM; in [10], 1400 nM; in the assay with recombinant human CD16b, 7500 nM; in [11], 2 nM; in the assay with recombinant human CD64, 5.2 nM. In assay [9], the koff is 0.000494 s⁻¹. In addition, the on-rate (kon) in assay [9] came to 844000 M⁻¹ s⁻¹. The “fold lower KD than F3'-1295” value in assay [12] is ~2 fold.
